Laboratory results: patent US20250352659A1, “SELF-STABILIZING LINKER CONJUGATES” (priority 2023, published 2025)
Read-outs that look alike come from different tables or passages of the source.

B1: ADC4-B (antibody, human IgG1, kappa, V domains shown)
VH: QVQLVQSGAEVKKPGSSVKVSCKASGYTFTNYVMHWVRQAPGQGLEWMGYINPYNDDVKYNEKFKGRVTITADESTSTAYMELSSLRSEDTAVYYCARWGYYGSPLYYFDYWGQGTLVTVSS
VL: EIVLTQSPATLSLSPGERATLSCRASSRLIYMHWYQQKPGQAPRPLIYATSNLASGIPARFSGSGSGTDFTLTISSLEPEDFAVYYCQQWNSNPPTFGQGTKVEIKR
modifications: conjugator-linker-payload on cysteine thiols after TCEP reduction (DAR8); residues not numbered; structure given only as a drawing
B2: ADC4-11 (antibody, human IgG1, kappa, V domains shown)
VH: B1 VH
VL: B1 VL
modifications: conjugator-linker-payload on cysteine thiols after TCEP reduction (DAR8), maleimide hydrolysed; residues not numbered; structure given only as a drawing
B3: ADC4-8 (antibody, human IgG1, kappa, V domains shown)
VH: B1 VH
VL: B1 VL
modifications: conjugator-linker-payload on cysteine thiols after TCEP reduction (DAR8), maleimide hydrolysed; residues not numbered; structure given only as a drawing

Assays:
[1] = Conjugator-antibody conjugate stability in pH 7.4 and 8.0 buffer with and without GSH; assay type: physicochemical; details: incubation 24 h;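 also: conjugate hydrolysis tracked by LC-MS analysis of reduced samples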
[2] = Conjugator-antibody conjugate stability in formulation buffer (pH 5.5 20 mM histidine buffer); assay type: physicochemical; details: pH 5.5, 22 °C; for MS DAR-T = 168 h / Maleimide ring opening ratio (%) at T = 168 h: incubation 168 h
Experimental: After the conjugation and hydrolysis steps described above (see “DAR8 antibody drug conjugate/conjugator-antibody conjugate preparation”), conjugator-antibody conjugates were incubated in formulation buffer (pH 5.5 20 mM histidine buffer) or glutathione (GSH) buffer (pH 7.4 or 8.0), […] Hydrolysis status was monitored via reduced LCMS. Results are presented in Table 6, Table 7, and FIGS. 2A-23B.

[3] = Conjugator-antibody conjugate maleimide hydrolysis (ring opening) kinetics by reduced LCMS; assay type: physicochemical; details: for half-life: buffer; for RO Completed Time (>95%): time for the maleimide ring to open in more than 95% of the conjugators
Experimental: After the conjugation step, the ADC (or conjugator-antibody conjugate) was subjected to buffer exchange into ring opening buffer (pH 6.5˜9.0, PBS, borate or tris buffer) and the solution was left at 22 or 37° C. for 1˜48 h. The maleimide ring opening process was monitored via reduced LCMS. Once the conjugated maleimide hydrolysis was completed, the resulting ADCs were buffer exchanged into basic tris pH 8.0-8.5 buffer or acidic histidine-acetate pH 5.0-6.5 buffer via dialysis.
LCMS method to monitor and determine maleimide hydrolysis. LC-MS analysis was carried out under the following measurement conditions: • LC-MS system: Vanquish Flex UHPLC and Orbitrap Exploris 240 Mass Spectrometer • Column: MAbPac™ RP, 2.1*50 mm, 4 μm, 1,500 Å, Thermo Scientific™ • Column temperature: 80° C. • Mobile phase A: 0.1% formic acid (FA) aqueous solution • Mobile phase B: Acetonitrile solution containing 0.1% formic acid (FA) • Gradient program 1: 25% B-25% B (0 min-2 min), 25% B-50% B (2 min-18 min), 50% B-90% B (18 min-18.1 min), 90% B-90% B (18.1 min-20 min), 90% B-25% B (20 min-20.1 min), 25% B-25% B (20.1 min-25 min) • Gradient program 2 • Injected sample amount: 2 μg • MS parameters: Intact and denaturing MS data were acquired in HMR mode at setting of R=15k and deconvolved using the ReSpect™ algorithm and Sliding Window integration in Thermo Scientific™ BioPharma Finder™ 4.0 software.
Results for ring opening times measured by the LCMS method described above for monitoring ring hydrolysis are presented in Table 3 as RO T1/2 (h) (i.e., the time, in hours, for 50% of the maleimide rings to open).
Conjugator-antibody conjugate maleimide hydrolysis (ring opening) kinetics are presented in FIGS. 1A-1L, Table 3 (for pH 7.0 reaction conditions, hydrolysis T1/2), and Table 5. The data in Table 5 was generated by the LCMS method described above and includes the time, in hours, for the maleimide ring to open in more than 95% of the conjugators, after antibody conjugation (“RO Completed Time (>95%) (h)”). The results for conjugator-antibody conjugate 3-1 indicate that after 24 hours, about 0% of maleimide rings were open; the results for conjugator-antibody conjugate 3-3 indicate that after 24 hours, about 28% of maleimide rings were open.

B7H3 [4] = target: T1, B7H3 (human, UniProt Q5ZPR3 29-534); assay: cell-based or functional assay
T1 sequence (looked up): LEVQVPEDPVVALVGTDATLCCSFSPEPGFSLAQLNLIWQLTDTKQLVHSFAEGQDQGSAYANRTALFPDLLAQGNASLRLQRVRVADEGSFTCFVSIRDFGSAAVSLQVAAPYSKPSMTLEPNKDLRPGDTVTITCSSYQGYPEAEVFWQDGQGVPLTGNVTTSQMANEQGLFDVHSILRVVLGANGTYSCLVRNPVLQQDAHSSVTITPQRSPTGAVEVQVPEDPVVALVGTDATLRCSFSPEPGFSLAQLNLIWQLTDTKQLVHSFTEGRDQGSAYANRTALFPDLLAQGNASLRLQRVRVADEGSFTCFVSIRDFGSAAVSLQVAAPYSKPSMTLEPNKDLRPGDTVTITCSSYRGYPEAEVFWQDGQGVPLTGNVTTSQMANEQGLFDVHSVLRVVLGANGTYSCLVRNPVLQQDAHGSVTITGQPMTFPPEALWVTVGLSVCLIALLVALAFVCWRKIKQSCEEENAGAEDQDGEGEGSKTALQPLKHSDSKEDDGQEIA

B7H3 [5] = target: T1, B7H3; assay: cell-based or functional assay; remark: listed apart in the source

| Molecule | MS DAR ([1]; pH 7.4, 22 °C) | MS DAR ([1]; pH 7.4, 37 °C) | MS DAR ([1]; pH 8.0, 22 °C) | MS DAR-T = 168 h [2] | Maleimide ring opening ratio (%) at T = 168 h [2] [%] | MS DAR-T = 0 h [2] | MS DAR ([3]; pH 7, time point 1 h) | RO (%) HC ([3]; pH 7, time point 1 h) [%] | RO (%) LC ([3]; pH 7, time point 1 h) [%] | RO (%) Total ([3]; pH 7, time point 1 h) [%] | MS DAR ([3]; pH 7, time point 3 h) | RO (%) HC ([3]; pH 7, time point 3 h) [%] | RO (%) LC ([3]; pH 7, time point 3 h) [%] | RO (%) Total ([3]; pH 7, time point 3 h) [%] | MS DAR ([3]; pH 7, time point 5 h) | RO (%) HC ([3]; pH 7, time point 5 h) [%] | RO (%) LC ([3]; pH 7, time point 5 h) [%] | RO (%) Total ([3]; pH 7, time point 5 h) [%] | MS DAR ([3]; pH 7, time point 7 h) | RO (%) HC ([3]; pH 7, time point 7 h) [%] | further results |
| --- | --- | --- | --- | --- | --- | --- | --- | --- | --- | --- | --- | --- | --- | --- | --- | --- | --- | --- | --- | --- | --- |
| CN(C)C(=O)CCNC(=O)OCCC(CN)N1C(=O)C=CC1=O (stereo not drawn) [3-13] | 7.90 | 7.90 | 7.90 | 7.88 | 98.33 | 7.84 | 8 | 43.63 | 21.50 | 38.10 | 8 | 92.96 | 64.20 | 85.77 | 8 | 100.00 | 74.30 | 93.58 | 8 | 99.68 | half-life ([3]; pH 7): 1.7 h; RO (%) LC ([3]; pH 7, time point 7 h): 93.68%; RO (%) Total ([3]; pH 7, time point 7 h): 98.18%; MS DAR ([3]; pH 7, time point 24 h): 8; RO (%) HC ([3]; pH 7, time point 24 h): 100.00%; RO (%) LC ([3]; pH 7, time point 24 h): 94.99%; RO (%) Total ([3]; pH 7, time point 24 h): 98.75%; RO Completed Time (>95%) ([3]; pH 7): 7 h |
| CN(C)C(=O)CCOCCC(CN)N1C(=O)C=CC1=O (stereo not drawn) [3-14] | 7.98 | 8.00 | 8.00 | 8.00 | 97.15 | 8.00 | 8 | 46.79 | 17.39 | 39.44 | 8 | 67.87 | 32.97 | 59.15 | 8 | 85.71 | 77.46 | 83.65 | 8 | 95.45 | half-life ([3]; pH 7.0, time for 50% of the maleimide rings to open, read-out: RO T1/2 (converted)): 2 h; RO (%) LC ([3]; pH 7, time point 7 h): 72.00%; RO (%) Total ([3]; pH 7, time point 7 h): 89.59%; MS DAR ([3]; pH 7, time point 24 h): 8; RO (%) HC ([3]; pH 7, time point 24 h): 99.69%; RO (%) LC ([3]; pH 7, time point 24 h): 95.83%; RO (%) Total ([3]; pH 7, time point 24 h): 98.73%; RO Completed Time (>95%) ([3]; pH 7): 24 h |
| B1 |  |  |  |  |  |  |  |  |  |  |  |  |  |  |  |  |  |  |  |  | EC50 (nM), ADC direct killing, Capan-1 (Low), 3D (B7H3 [4]): 0.5 nM; EC50 (nM), ADC direct killing, NCI-H1650 (High), 3D (B7H3 [4]): 3.9 nM; Emax (%), ADC direct killing, Capan-1 (Low), 3D (B7H3 [4]): 84.9%; Emax (%), ADC direct killing, NCI-H1650 (High), 3D (B7H3 [4]): 75.3%; EC50 (nM), ADC direct killing, Capan-1 (Low), 3D (B7H3 [5]): 1.1 nM; EC50 (nM), ADC direct killing, NCI-H1650 (High), 3D (B7H3 [5]): 4.5 nM; Emax (%), ADC direct killing, Capan-1 (Low), 3D (B7H3 [5]): 74.3%; Emax (%), ADC direct killing, NCI-H1650 (High), 3D (B7H3 [5]): 66.5% |
| B2 |  |  |  |  |  |  |  |  |  |  |  |  |  |  |  |  |  |  |  |  | EC50 (nM), ADC direct killing, Capan-1 (Low), 3D (B7H3 [5]): 1 nM; EC50 (nM), ADC direct killing, NCI-H1650 (High), 3D (B7H3 [5]): 2.1 nM; Emax (%), ADC direct killing, Capan-1 (Low), 3D (B7H3 [5]): 62.4%; Emax (%), ADC direct killing, NCI-H1650 (High), 3D (B7H3 [5]): 85.6% |
| B3 |  |  |  |  |  |  |  |  |  |  |  |  |  |  |  |  |  |  |  |  | EC50 (nM), ADC direct killing, Capan-1 (Low), 3D (B7H3 [4]): 1 nM; EC50 (nM), ADC direct killing, NCI-H1650 (High), 3D (B7H3 [4]): 2.9 nM; Emax (%), ADC direct killing, Capan-1 (Low), 3D (B7H3 [4]): 66.6%; Emax (%), ADC direct killing, NCI-H1650 (High), 3D (B7H3 [4]): 79.5% |
